Measured values published in the RNAGym collection of RNA variant scans (doi:10.1073/pnas.2313332121).
This sample holds only a part of the variants without activity.

B1: TPR 5TU (parent)
chain: GGAUCUUCUCGAUCUAACAAAAAAGACAAAUCUGCCACAAAGCUUGAGAGCAUCUUCGGAUGCAGAGGCGGCAGCCUUCGGUGGCGCGAUAGCGCCAACGUUCUCAACUAUGACACGCAAAACGCGUGCUCCGUUGAAUGGAGUUUAUCAUG

Variants of: B1
Experiment: polymerase ribozyme fitness, log enrichment relative to wild type (log ratio); higher = more active; in vitro selection for triplet polymerase activity
Method in brief: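 Mutant libraries of each subunit of a heterodimeric triplet polymerase ribozyme were built by PCR and transcribed. Each library went through one round of in vitro selection in triplicate: annealing with biotinylated primer, partner subunit and triplets, frozen incubation at −7 °C, gel excision of extended constructs, streptavidin-bead capture and RT-PCR. Input and output libraries were Illumina-sequenced; only genotypes with ≥10 input reads and ≥1 read per output were kept. Fitness is log2(genotype enrichment/wild-type enrichment), using inverse-variance-weighted replicate averages.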

Variant | polymerase ribozyme fitness (log ratio)
GGAUCUUCUCGAUCUAACAAAAAAGACAAAUCUGCCACAAAGCUUGAAAGCAUCUUCGAAUGCAGAGGCGGCAGCCUUCGGUGGCGCCAUAGCGCCAACGUUCUCGACUAUGACACGCAAAACGCGUGCUCCGUUGAAUGGAGUUUACCAUG [G48A G59A G88C A106G U148C] | ≤ -4.2
GGAUCUUCUCGAUCUAACAAAAAAGACAAAUCUGCCACAAAGCUUGAGCGCAUCUUCGGAUGCAGAGGCGGCAGCCUUCGGUGGCGCGAUAGCGCCAACGUUAUCAACUAUGACACGCAAAACGCGUGCUCCGUUGAAUGGAGUUUAUCAUG [A49C C103A] | -3.96
GGAUAUUCUCGAUCUAACAAAAAAGACGAAUCUGGCUCAAAGCUUGAGAGCAUCUUCGGAUGCAGAGGCGGCAGCCUUCGGUGGGGCGAUAGCGCGAACGUUGUCAACUAUGACACGCAAAACGCGUGCUCCGUUGAAUGGAGUUUAUCAAG [C5A A28G C35G A37U C85G C96G C103G U151A] | -3.65
GGAUCUUCUAGAUCUAACAAUAAAGACAAAUCUGCCACAAAGCUUGAGAGCAUCUUCGGAUGCAGAGGCGGCAGCCUUCGGUGACGCGAUAGCGCCUACGUUCUCAACUAUGGCACGCAAAACGCGUGCUCCGUUGAAUGGAGUUUAUCAUG [C10A A21U G84A A97U A113G] | ≤ -4.2
GGAUCUUCUCGAUCUAACAAAAAAGACAAGUCUGCCACAAAGCUAGAGAGCAUCUUCGGAUGCAGAGGCGGCAGCCUUCGGUGGCGCGAUAGCGCCAACGUUCUCCACUAUGACACGCAAAACGCGUGCUCCGUGGAAUGGAGUUUAUCAUG [A30G U45A A106C U135G] | -3.85
GGAUCUUCUCGAUCUAACAAGAAAAACAAAUCUGCCACAAAGCUUGAGAGCAUCUACGGAUGCAGAGGCGGCAGCCUUCGGUGGCGCGAUAGUGCCAACGUUCUCAACUAUGACACGCGCAACGCGUGCUCCGUUGAAUGGAGUUCAUCAUG [A21G G25A U56A C93U A119G A120C U146C] | -3.11
GGAUCUUCUCGAUCUAACAAAAAAGACAAAACUGCCACAAAGCUUGAGAGCAUCUUCGGAUGCAGAGGCGGCAGCCUUCGGUCGCGCGAUAGCGCCAACGUUCUUAACUAUGACACGCAAAACGCGGGCUCCAUUGCAUGGAGUUUAUCAUG [U31A G83C C105U U127G G133A A137C] | ≤ -4.2
GGAUCUUCUCGAUCUAACAAAAAAGACAAAUCUGCCACAAAGCUUGAGAGCAUCUUUGGAUGCAGAGGCGGCAGCCUUCGGUGGCGCGAUAGCGGCAACGUUCUCAACUAUGACACGCAAAACGCGUGCUCCGUUGAAUGGAGUUUAUCAUG [C57U C95G] | -2.96
GGAGCUUCUCGGUCUAGCAAAAAAGACAAAUCUGCCACAAAGCUUGAGAGCAUCUUCGGAUGCAGAGGCGGCAGCCUUCGGUGGCGCGAUAGUGCCAACGUUCUCAACUAUGACACGCAAAACGCGUGCUCCGUUGAAUGCAGUUUAUCAUG [U4G A12G A17G C93U G141C] | -3.94
GGAUCUUCUCGAUCUAACACAAAAGACAAAUCUGCCACAAAGUAUGAGAGCAUCGUCGGAUGCAGAGGCGGCAGCCUUUGGUGGCGCGAUAGCGCCAACGUUCUCAACUAUGACACGCAAAACGCGUGCUCCGUUGAAUGAAGUUUAUCAUG [A20C C43U U44A U55G C79U G141A] | ≤ -4.2
GGAUCUUCUCGAUCUAACAAAAAAGACAAAUCUGCCACAAAGCUAGAGAGCAUCUUCGGAUGCAGAGGCGGCAGCCUUCGGUGGCGCGAUAGCGCCAACGUUCUCAACUAUGACAUGCAAAACGCGUGCUCCGUUGAAUGGAGUUUAUCAUG [U45A C116U] | -2.44
GGAUCUUCUCGAUCUAUCAUAAAAGACAAAUCUGCCACAAAGCUUGAGACCAUCUUCGGAUGCAGAGGCGGCAGCCUUCGGUGGCGCGAUAGCGCCAACGUUCUCAACUAUGACACGCAAAACGCGUGCUCCGUUGAAUGGAGUUUAUCAUG [A17U A20U G50C] | ≤ -4.2
GGAUCUUCUCGAUCUAACAAAAGAGACAAAUCUGCCACAAAGCUUGAGAGCAUCUUCGGAUGCAGAGGCGGCAGCCUUCGGUGGUGCGAUAGCGUCAACGUUCUCAACUAUGACACGCAAAACGCGUGCUCCUUUGAAUGGAGUUUAUCAUG [A23G C85U C95U G133U] | -4
GGAUCUUCUCGAUCUAACAAAAAAGACAAAUCUGCCACAAAGCUUGAGAGCAUCUUCGGAGGCAGCGGCGGCAGCCUUCGGUGGCGCGAUAGCGCCAACGUUCUCAACUAUGACACGCAAAACGCGUGCUCCCUUGAAUGGAGUUUAUCAUG [U61G A66C G133C] | ≤ -4.2
GGAUUUUCUCGUUCUAACAAAAAAGACAACUCUGCCACAAAGCUUGAGAGCAUCUUCGCAUGCAGAGGCGGCAGCCUUCGGUGGCGCGAUAGCGCCAACGUUCUCAACUAUGACACGCAAAACGGUUGCUCCGUUGAAUGGAGUUUAUCAUG [C5U A12U A30C G59C C125G G126U] | ≤ -4.2
GGAUCUUCUCGAUCUAACAAAAAAGACAAAUCUGCCACAAAGCUUGAGAGCAUCUACGGAUGCAGAGGCGGCAGCCUUCGGUGGCGCGAUAGAGCCAACGUUCUCAACUAUGACACGCAAAACGCGUGCUCCGUUGAAUGGAGUUUAUCAUG [U56A C93A] | -2.63
GGAUCUUCUCGAUCUAACAAAAAAGACAAAUCUGCCACAAAGCUUGAGAGCAUCAUCGGAUGCAGAGGCGGCAGCCUUCGGUGGCGCGAUAUCGCCAACGUUCUCAACUAUGACACGCAAAACGCGUGCUCCGUUGAAUGGAGUUCAUCAUG [U55A G92U U146C] | -0.69
GGAUCUUCGCGAUCUAACAAAAAAGACAAAUCUGCCUCAAAGCUUGAGAGCAUCUUUGGAUGCAGAGGCGGCAGCCUUCGGUGGUGCGAUAGCGCCAACGUUCUCAACUAUGACACGCAAAACGCGUACUCCGUUGAAUGAAGUUAAUCAUG [U9G A37U C57U C85U G128A G141A U146A] | ≤ -4.2
GGAUCUUCUCGAUCUAACAAAAAAGACAAAUCUGCCACAAAGCUUGAGAGCAUCUUCGGAUGCAGAGGCGGCAGCCUUCGGUGGCGCGAUAGUGCCAACGUUCUCAACUAUGAUACGCAAAACGCGUGCUCCGUUGAAUGAAGUUUAUCAUG [C93U C114U G141A] | ≤ -4.2
